# Test: soluble on expression in E. coli; label from the status in PepcDB or PDB records
row,Sequence,soluble on expression in E. coli
1,GMSEIDANYRALAQQVADKVAGRVIALDRLPESLLTAYRSLCDELLADRDGRFTRAWDQLPDSASSLFERCVFHGFYLANAWIQLSIVARDISELQDTDEAIAEQEYSGLYVRVAEAALKESVKKLKKARTDRSMYNSMREVMGI,soluble
2,GMSISSKAKEILTQFTREVWSEGNIEASDKYIAPKYTVLHDPGDPWEGRELDVAGYKERVKTLRAAFPDQCFDIQGLFADGDAVVMTWLWTATHKEDIPGFPSTGKQIKMSGATVYYFDGNRLTGHWQITDRLGVYQQLRQAAAGA,soluble
3,GMSLPHLSSGEVASVLPLGKQLTQTPSAALFKEHRLEVMRMVLPAGKQVGSHSVAGPSTIQCLEGEVEIGVDGAQRRLHQGDLLYLGAGAAHDVNAITNTSLLVTVVLVDRGGS,soluble
4,GMSMPNHPNLTTADAKKILNKFNCLDIAPILKPSEKESVRRALILITKLSDYQILGICADTADEGLLAMKTYSHALGYEVPIDLPVVEGPVYIKLNGKNGLCYLDSYAGHHRGVLVSCQSYYEGGINEMYGHLPLDLFV,soluble
5,GMSSMQHIVELTSDLIRFPSMHSRPEQISRCAGFIMDWCAQNGIHAERMDHDGIPSVMVLPEKGRAGLLLMAHIDVVDAEDDLFVPRVENDRLYGRGANDDKYAVALGLVMFRDRLNALKAAGRSQKDMALGLLITGDEEIGGMNGAAKALPLIRADYVVALDGGNPQQVITKEKGIIDIKLTCTGKAAHGARPWMGVNAVDLLMEDYTRLKTLFAEENEDHWHRTVNLGRIRAGESTNKVPDVAEGWFNIRVTEHDDPGALIDKIRKTVSGTVSIVRTVPVFLAADSPYTERLLALSGATAGKAHGASDARYLGENGLTGVVWGAEGFNTLHSRDECLHIPSLQSIYDPLMQLAREMEEHAAV,soluble
6,GMSSTSSKVVLHPTMLNCMRGLHKKAVLPEPVLDRGIELARAFVGGRRARGQRVERQPDVAAACLMIAAEEAQQPLPLAEVRCLDSSLGDVELRRADIVRELHLEDSERRLRDTFADNLLVKYILKLGLQVSLYLPHCKRLLTALGRVEALAGLTVADRVTTALLLARTAQTLSWEQGTHISKGKECDLGMEAIYANFSSKAHLEVTKVNKIMHLAVDVLPLIQAAFQDCGEPTAGKRKVDKNSEPEASGGTKRVKREET,soluble
7,GMTILSDVKALGQQIWLDNLSRSLVQSGELAQMLKQGVCGVTSNPAIFQKAFAGDALYADEVAALKRQNLSPKQRYETMAVADVRAACDVCLAEHESTGGKTGFVSLEVSPELAKDAQGTVEEARRLHAAIARKNAMIKVPATDAGIDALETLVSDGISVNLTLLFSRAQTLKAYAAYARGIAKRLAAGQSVAHIQVVASFFISRVDSALDATLPDRLKGKTAIALAKAAYQDWEQYFTAPEFAALEAQGANRVQLLWASTGVKNPAYPDTLYVDSLIGVHTVNTVPDATLKAFIDHGTAKATLTESADEARARLAEIAALGIDVETLAARLQEDGLKQFEEAFEKLLAPLV,soluble
8,GNQRKVSVVGAQSTMDVKDIKMPAASLSSAISGRIAGVVAVQRSGEPGHDESDIWIRGLSSLLGQSSSPLVLVDGVERSFNNIDPEDIESFTVLKDASATAVYGVRGANGVVIVKTKPGKVG,soluble
9,GNSPQEEVELKKLKHLEKSVEKIADQLEELNKELTGIQQGFLPKDLQAEALCKLDRRVKATIEQFMKILEEIDTLILPENFKDSRLKRKGLVKKVQAFLAECDTVEQNICQETE,soluble
10,GPFCGRARVHTDFTPSPYDTDSLKIKKGDIIDIICKTPMGMWTGMLNNKVGNFKFIYVDVISE,soluble
11,GPGSAEKKQKQHFYLTQEMPPRRDPERQRAKVAAATMAPSEHKKASLPPAKLRLNLGPFLPQKKKNRPPKTTEIDWGSEQTPRLQCSWHPQRRNGIVSFPVMMSYPVSCHCAAWGCHITRAYPTMTRQGAHRLASPKVGRPRRSTRKPDQK,soluble
12,GPGSATTVHGETVVNGAKLTVTKNLDLVNSNALIPNTDFTFKIEPDTTVNEDGNKFKGVALNTPMTKVTYTNSDKGGSNTKTAEFDFSEVTFEKPGVYYYKVTEEKIDKVPGVSYDTTSYTVQVHVLWNEEQQKPVATYIVGYKEGSKVPIQFKASLDSTTLTVKKKVSGTGGDRSKDFNFGLTLKANQYYKASEKVMIEKTTKGGQAPVQTEASIDQLYHFTLKDGESIKVTNLPVGVDYVVTEDDYKSEKYTTNVEVSPQDGAVKNIAGNSTEQETSTDKDMTITFTNKKVFE,soluble
13,GPGSGRYREGVEDCTKTLQIDKEFYKAYARRARCHEHLGDHFAAVRDFKKAIEYDSTDRELARELRAAEQNLAKEAEKERDFYFQLGVSRTATEREIKLKYRELSLRWHPDKCIGLDEVERERAEHKFKIISEAYATLVDAGKRREYDAKQDRERFTRAGGFNFSSTYSGGNANDYYRGRHRAGGNGFW,soluble
14,GPGSMAASQLIATRFTDLLAEGNIESALKYIANDVVYNTWLGVVYGKDNVEVFLRDNVRFVHHGRNYNRWKQVQHSLDASLKQFTVNDVSGYDESALDVRSYYDSEGYDSQGYATFERDGTIASHAKFAVFHVKVKETVVLRNNKVVLVNVSKRA,not soluble
15,GPGSMADVADPSSELINELRALVVSGSGLVPLDERKVHTVVENMTDAFRHLESISRNPFADPSQPYYSGAMRFYKAKCLRDKRCVVAYLLWRQSQITKSWWEARDNTISNMLAPCERTFLQDYNDVMVEYMTSFAVPLDLRSFTWRPPSTQQLEVRGLVNHVFVSSITGAVINLYKGKQILLGFEEAESLIQQGVVELVE,not soluble
16,GPGSMAIEVATSTRLQYARMLRSMLEMDRTPLDMMILGFQKIAARSETRQTRQARPVTEEEMNEYIRSRTDWKERVVVRLAWMTASRWSEIAALNPNNFKLKPDGALILDWPVVPKTARADPHRAFRFVRIRGQDAFDIIKLCRTLQENEKLTNITNAQVERALAPWDATAHSIERGALRHAAQIVEKYNLDPHVISQLAKHVNPFDLPQNTV,soluble
17,GPGSMARVTLREDFDDCAADYRILSVSADHFKEITCKVAACKQTGEEMGKINETHHEATTLMTMKGGSQLLLCDDERTFRVRRVEYSNTLLLAEAKAAKMHDTNGIIESDNASDAGEGREHVVVCSSERVFEVKPSVAYNDISQHLLESPLTLKELDTLGTVERSDENVEYIKREELENGTSSSAQRFYTFPQLVALNRSSARELAVILSDMGAVVFNGYVRLLKPALMREALRASLNFFDAYDTMSWEGVMEQLCPSVYPHIVLRAVRAAYGNATASGETPRGMAAFLQVPKVLQALAASVLLADDAEQNTQFTEAELQDKKLSKSVNRRGSLFPELDFDIFYDSWTSSIPSSLFADGTLPSQSDRNALLKFLYGSVIVVRNAEGDSHVGARAVWAPSNVLSTDVSLRTRQLFEIRPGRWEAEELRAYVAPLLDPGVAFDHIIVRYAKEYRVPGRPVMYGNLS,not soluble
18,GPGSMDKTKDSLIAVYDLGGGTFDISVLEIAGGVFEVKATNGDTHLGGEDFDLALSDYILEEFRKTSGIDLSKERMALQRVREAAEKAKCELSSAMETEVNLPFITANADGAQHIQMHISRSKFEGITQRLIERSIAPCKQCMKDAGVELKEINDVVLVGGMTRMPKVVEEVKKFFQKDPFRGVNPDEAVALGAATLGGVLRGKASDLILVDVTPLSLGTSVVGDVFTRMIPKNTTIPCMRSHIFTTVDDGQTAIKFKVFQGEREIASENQIRGEFDLSGIPPAPRGVPQIEVTFDIDANGICHVTAKDKATGKTQNITITANGGLSKEQIEQMIRDSEQHAEADRVKRELVEVRNNAETQLTTAERQLGEWKYVSDAEKENVKTLVAELRKAMENPNVAKDDLAAATDKLQKAVMECGRTEYQQAAAANSGQC,not soluble
19,GPGSMDVSKRPREELHKEQCLSFVKKLWAADTLAMFHYPVSATEVPGYYDVVETPMDLSTIRKNIEQGTYRTDAEVENDVVLMLSNALDFNEKGSQWHDLAKQFKKQYLTLARESGLSFDADQAFIPTKKVRDDESTLRKAEKKGEEKLEDVLQAMEKDKEIPLEQLRAMYARRTTRGKADQQSSDFSSGRGNDDSDEVVSSDEEDTSDSGSGSYDTEEDEDSLDSESASKDDDDDK,soluble
20,GPGSMEATVAPSTGLRQLRRVRRARTQYERLQRPDDIQPGYPIPSIEGWVLFFSNLPETTTQEDIANYLVSFKEGDPDYFGAITDIKIPLNADCFCAGYALVELEDRAGYERAIAELNGTVFPSADKPLVVAPTFLGEEEEQEPQAEEVAPGEKRARD,soluble
21,GPGSMEEDLAYKIIVIGSVSVGKSNITSRFCDGAFYPDLVPTLGMDFKYSSCNTLEKRPRCVRLQVWDTSGQDDFVTLTTAFYRNCQGALLCFDLTNRQSFEDLDQWYERLERYSPVVPPLILVGCKLDLVESHLDEQGEGIVLGSHRQIAKSEADAWARYHSCLCYLETSAKENRNVSQAFQQLATCIASVANPGAKHAGRILGPGGRLLVEEEKQQKRQCCAN,not soluble
22,GPGSMEERKTASGSAYYLPSPLLLSQNQGEERVKFVVVSGGVCSSLGKGVTTSAIGALLHASGYRVCSIKIDPYINIDAGLMSPYEHGEVYVLEDGGEADLDLGNYERWMSVHLTRDHNITTGKMYQKLLTKERAGGFLGKTVQLVPHFTNEVVNHIFKIC,not soluble
23,GPGSMFRAVYSNPAANVPASNCMTDGFPLLPPQRPHSSGSQLMRGCPLPWNDGRTLMYGVPAKNEASLQQVSYSRTLGQRWSSGSADNAAQCAAATHSTVCFASCASGANGSAGGSPVLLQPAMGVPAFVTDNQQLPSMVAQSSPTVSRLTSGMCSTSEGSATFGASTTSATSSTVGNCAATGTAATTNGSMAHTGTSPALPGFQMSVPLPTSAMTAVAAPPQQPQTCFWLSHTTGALTPIRKEDMMTISDTSASTNTHSYAMPPPPTMPSQPSSASATSVPTYLMAPQVSSFGGAMVQAFSELLSGSTAFSVPALPLPQPPRPPKTLNGLQYHLGELYEGFVKRYNPNRGFGFLTATTHVTVVNDGSNSDSATGTPIASLNNTTTAVPTTGEAETPKEYRTPVHLGDIFVHQSSMQMEGFRTLPVGGRVRFCIGYKDGQQTLQAVNVELLPQVLPPNVEMASSP,not soluble
24,GPGSMGKYAAVIIGPAGSGKSTLCGVLAEHYATMGRSTHIANMDPAADLLPYEPSMDIRDLISLEDAMEGKGLGPNGGLVFCMEYLVTAGATWVSQQLGDYADDFIIVDMPGQVEVLSNQPAVPAFVRLLQQEGYYTTVLYLLDALATTADSGKFISGCMFSLSSMVCFDCPFINVLTKCDLLSKDFKENGMLEHFCMCDFDYMDLSRLPPRFRAMSRQIGALLTDFNLVTFRPVDIEDVGYVSNLCSVLDETLQVADEAEVQDHDLGDN,soluble
25,GPGSMGRERMASSWRMPVYRSWQCSTPWSVSLPHPGPALPTLLVRHVCTPVSVCLYTNLSYCSLHAHNSIERLPPPLHAFVPTTHTHTHKHTYICIYACHSPLLRVSTWTKAFCLILRSRTLSTMSTKYLAAYALASLSKASPSQADVEAICKAVHIDVDQATLAFVMESVTGRDVATLIAEGAAKMSAMPAASSGAAAGVTASAAGDAAPAAAAAKKDEPEEEADDDMGFGLFD,not soluble
26,GPGSMIQIIAPRGPLQEMLLLELQGKVVIPPKLLEEERERQRIPNSSEEEVKACSQVTGGKRLREDGECGVNVDTNQVVEVPLGCVVWDSRNETRCSLQIGTVEVSGSYGKRREPLLVLKRCVVGDKTADAEGAVACEYSESSGSQCCLLQEWLQEHPEELTLDATVRGATVPRKVYELVGVVERYIHLNSKPLRRFV,not soluble

# Source: the DeepSol protein solubility set
